Blank lines part the entries; values can stand above or below the binder they belong to.
Key:
[1] = target: T1, 4H2717-bH; assay: two-hybrid library CCNG1;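 note: natural log of median RNA to DNA barcode read ratio; higher means stronger binding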
T1 chain: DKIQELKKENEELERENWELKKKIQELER

[2] = target: T2, 4H2839-bH; assay: two-hybrid library CCNG1;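 note: natural log of median RNA to DNA barcode read ratio; higher means stronger binding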
T2 chain: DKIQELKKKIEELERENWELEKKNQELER

[3] = target: T3, 4H2915-bH; assay: two-hybrid library CCNG1;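 note: natural log of median RNA to DNA barcode read ratio; higher means stronger binding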
T3 chain: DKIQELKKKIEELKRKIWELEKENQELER

[4] = target: T4, 4H3057-bH; assay: two-hybrid library CCNG1;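 note: natural log of median RNA to DNA barcode read ratio; higher means stronger binding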
T4 chain: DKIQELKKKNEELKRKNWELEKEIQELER

[5] = target: T5, 4H319-bH; assay: two-hybrid library CCNG1;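 note: natural log of median RNA to DNA barcode read ratio; higher means stronger binding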
T5 chain: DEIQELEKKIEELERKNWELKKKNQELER

[6] = target: T6, 4H3277-bH; assay: two-hybrid library CCNG1;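 note: natural log of median RNA to DNA barcode read ratio; higher means stronger binding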
T6 chain: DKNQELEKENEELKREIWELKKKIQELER

[7] = target: T7, 4H348-bH; assay: two-hybrid library CCNG1
T7 chain: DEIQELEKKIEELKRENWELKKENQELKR

[8] = target: T8, 4H40-bH; assay: two-hybrid library CCNG1
T8 chain: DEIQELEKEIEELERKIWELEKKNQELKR

[9] = target: T9, 4H477-bH; assay: two-hybrid library CCNG1
T9 chain: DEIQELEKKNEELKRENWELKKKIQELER

[10] = target: T10, 4H492-bH; assay: two-hybrid library CCNG1
T10 chain: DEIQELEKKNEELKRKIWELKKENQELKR

[11] = target: T11, 4H741-bH; assay: two-hybrid library CCNG1
T11 chain: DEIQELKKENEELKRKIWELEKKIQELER

[12] = target: T12, AP4-AA; assay: two-hybrid library CCmax
T12 chain: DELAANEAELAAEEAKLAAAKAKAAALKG

[13] = target: T13, AP5-AA; assay: two-hybrid library CCmax; conditions: mean of both orientations
T13 chain: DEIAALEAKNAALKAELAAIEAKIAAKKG

[14] = target: T14, AP6-AA; assay: two-hybrid library CCmax; conditions: mean of both orientations
T14 chain: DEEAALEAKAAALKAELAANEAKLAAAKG

[15] = target: T15, AP7-AA; assay: two-hybrid library CCmax; conditions: mean of both orientations
T15 chain: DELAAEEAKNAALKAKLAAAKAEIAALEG

[16] = target: T16, AP8-AA; assay: two-hybrid library CCmax; conditions: mean of both orientations
T16 chain: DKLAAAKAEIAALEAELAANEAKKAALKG

[17] = target: GCN2_T; assay: two-hybrid library CCmax
[18] = target: T17, P1-AA; assay: two-hybrid library CCmax; conditions: mean of both orientations
T17 chain: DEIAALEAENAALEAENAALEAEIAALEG

[19] = target: T18, P10-AA; assay: two-hybrid library CCmax; conditions: mean of both orientations
T18 chain: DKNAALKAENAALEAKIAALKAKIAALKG

[20] = target: T19, P11-AA; assay: two-hybrid library CCmax; conditions: mean of both orientations
T19 chain: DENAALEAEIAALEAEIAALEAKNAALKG

[21] = target: T20, P12-AA; assay: two-hybrid library CCmax; conditions: mean of both orientations
T20 chain: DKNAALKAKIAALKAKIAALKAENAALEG

[22] = target: T21, P2-AA; assay: two-hybrid library CCmax; conditions: mean of both orientations
T21 chain: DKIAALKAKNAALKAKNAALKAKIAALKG

[23] = target: T22, P3-AA; assay: two-hybrid library CCmax; conditions: mean of both orientations
T22 chain: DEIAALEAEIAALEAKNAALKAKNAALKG

[24] = target: T23, P4-AA; assay: two-hybrid library CCmax; conditions: mean of both orientations
T23 chain: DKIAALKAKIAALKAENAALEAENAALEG

[25] = target: T24, P7-AA; assay: two-hybrid library CCmax; conditions: mean of both orientations
T24 chain: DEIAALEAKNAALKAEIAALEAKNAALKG

[26] = target: T25, P8-AA; assay: two-hybrid library CCmax; conditions: mean of both orientations
T25 chain: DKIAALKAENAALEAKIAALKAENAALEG

[27] = target: T26, P9-AA; assay: two-hybrid library CCmax; conditions: mean of both orientations
T26 chain: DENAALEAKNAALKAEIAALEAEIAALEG

[28] = target: T27, 4H189-AA; assay: two-hybrid library CCmax
T27 chain: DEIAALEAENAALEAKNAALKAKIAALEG

[29] = target: T28, 4H2248-AA; assay: two-hybrid library CCmax; conditions: mean of both orientations
T28 chain: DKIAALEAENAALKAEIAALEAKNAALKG

[30] = target: T29, 4H2283-AA; assay: two-hybrid library CCmax; conditions: mean of both orientations
T29 chain: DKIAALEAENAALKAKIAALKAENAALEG

[31] = target: T30, 4H2713-AA; assay: two-hybrid library CCmax; conditions: mean of both orientations
T30 chain: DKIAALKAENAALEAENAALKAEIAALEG

[32] = target: T31, 4H2742-AA; assay: two-hybrid library CCmax; conditions: mean of both orientations
T31 chain: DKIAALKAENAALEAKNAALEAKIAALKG

[33] = target: T32, 4H2948-AA; assay: two-hybrid library CCmax; conditions: mean of both orientations
T32 chain: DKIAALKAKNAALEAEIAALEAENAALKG

[34] = target: T33, 4H2991-AA; assay: two-hybrid library CCmax; conditions: mean of both orientations
T33 chain: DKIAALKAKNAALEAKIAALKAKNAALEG

[35] = target: T34, 4H3029-AA; assay: two-hybrid library CCmax; conditions: mean of both orientations
T34 chain: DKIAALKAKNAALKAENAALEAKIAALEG

[36] = target: T35, 4H3066-AA; assay: two-hybrid library CCmax; conditions: mean of both orientations
T35 chain: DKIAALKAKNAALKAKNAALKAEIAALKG

[37] = target: T36, 4H3102-AA; assay: two-hybrid library CCmax; conditions: mean of both orientations
T36 chain: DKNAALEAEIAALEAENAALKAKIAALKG

[38] = target: T37, 4H3121-AA; assay: two-hybrid library CCmax; conditions: mean of both orientations
T37 chain: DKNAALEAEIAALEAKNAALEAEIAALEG

[39] = target: T38, 4H3417-AA; assay: two-hybrid library CCmax; conditions: mean of both orientations
T38 chain: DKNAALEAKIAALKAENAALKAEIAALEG

[40] = target: T39, 4H3446-AA; assay: two-hybrid library CCmax; conditions: mean of both orientations
T39 chain: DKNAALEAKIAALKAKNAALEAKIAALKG

[41] = target: T40, 4H3591-AA; assay: two-hybrid library CCmax; conditions: mean of both orientations
T40 chain: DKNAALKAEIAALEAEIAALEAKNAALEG

[42] = target: T41, 4H3628-AA; assay: two-hybrid library CCmax; conditions: mean of both orientations
T41 chain: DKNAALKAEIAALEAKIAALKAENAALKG

[43] = target: T42, 4H3666-AA; assay: two-hybrid library CCmax; conditions: mean of both orientations
T42 chain: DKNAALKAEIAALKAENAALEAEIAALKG

[44] = target: T43, 4H3709-AA; assay: two-hybrid library CCmax; conditions: mean of both orientations
T43 chain: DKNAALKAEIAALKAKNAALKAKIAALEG

[45] = target: T44, 4H391-AA; assay: two-hybrid library CCmax; conditions: mean of both orientations
T44 chain: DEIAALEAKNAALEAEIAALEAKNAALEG

[46] = target: T45, 4H3920-AA; assay: two-hybrid library CCmax; conditions: mean of both orientations
T45 chain: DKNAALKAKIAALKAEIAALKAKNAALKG

[47] = target: T46, 4H3939-AA; assay: two-hybrid library CCmax
T46 chain: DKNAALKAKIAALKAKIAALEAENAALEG

[48] = target: T47, 4H428-AA; assay: two-hybrid library CCmax; conditions: mean of both orientations
T47 chain: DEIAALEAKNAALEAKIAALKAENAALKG

[49] = target: T48, 4H478-AA; assay: two-hybrid library CCmax; conditions: mean of both orientations
T48 chain: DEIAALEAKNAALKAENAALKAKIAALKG

[50] = target: T49, 4H497-AA; assay: two-hybrid library CCmax; conditions: mean of both orientations
T49 chain: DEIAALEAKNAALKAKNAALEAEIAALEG

[51] = target: T50, 4H656-AA; assay: two-hybrid library CCmax; conditions: mean of both orientations
T50 chain: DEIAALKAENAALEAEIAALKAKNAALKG

[52] = target: T51, 4H675-AA; assay: two-hybrid library CCmax; conditions: mean of both orientations
T51 chain: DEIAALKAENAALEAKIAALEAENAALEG

[53] = target: T52, 4H971-AA; assay: two-hybrid library CCmax; conditions: mean of both orientations
T52 chain: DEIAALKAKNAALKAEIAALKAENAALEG

[54] = target: T53, 4H3298-bH; assay: two-hybrid library CCNG1
T53 chain: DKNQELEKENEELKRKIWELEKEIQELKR

[55] = target: T54, 4H3462-bH; assay: two-hybrid library CCNG1
T54 chain: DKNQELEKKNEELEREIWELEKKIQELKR

[56] = target: T55, 4H3497-bH; assay: two-hybrid library CCNG1
T55 chain: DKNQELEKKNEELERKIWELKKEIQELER

[57] = target: T56, 4H3613-bH; assay: two-hybrid library CCNG1
T56 chain: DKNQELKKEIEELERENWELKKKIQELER

[58] = target: T57, 4H3628-bH; assay: two-hybrid library CCNG1
T57 chain: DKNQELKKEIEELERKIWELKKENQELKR

[59] = target: T58, 4H3926-bH; assay: two-hybrid library CCNG1
T58 chain: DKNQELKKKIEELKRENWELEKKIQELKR

[60] = target: T59, 4H591-bH; assay: two-hybrid library CCNG1
T59 chain: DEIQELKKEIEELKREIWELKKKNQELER

[61] = target: T60, 4H626-bH; assay: two-hybrid library CCNG1
T60 chain: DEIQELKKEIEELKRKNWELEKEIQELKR

[62] = target: T61, 4H906-bH; assay: two-hybrid library CCNG1
T61 chain: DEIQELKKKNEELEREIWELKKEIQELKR

[63] = target: T62, 4H575-bA; assay: two-hybrid library CCNG1
T62 chain: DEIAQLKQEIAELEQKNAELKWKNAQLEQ

- interaction score [1]: 1.16
- interaction score [2]: -0.51
- interaction score [3]: -0.399
- interaction score [4]: -0.185
- interaction score [5]: -0.701
- interaction score [6]: -0.479
- interaction score [7]: -0.364
- interaction score [8]: -0.815
- interaction score [9]: 1.38
- interaction score [10]: -0.752
- interaction score [11]: -1.79
Binder: DKIQELKKENEELERENWELKKKIQELER [4H2717-bH]

- interaction score [12]: -1.46
- interaction score [13]: -1.51
- interaction score [14]: -2.03
- interaction score [15]: -1.78
- interaction score [16]: -1.25
- interaction score [17]: -1.55
- interaction score [18]: -1.34
- interaction score [19]: -1.25
- interaction score [20]: -0.858
- interaction score [21]: -1.45
- interaction score [22]: -1.78
- interaction score [23]: -1.14
- interaction score [24]: -1.48
- interaction score [25]: -1.82
- interaction score [26]: -1.15
- interaction score [27]: -1.6
Binder: DELAANEAELAAEEAKLAAAKAKAAALKG [AP4-AA]

- interaction score [54]: 1.66
- interaction score [55]: 0.573
- interaction score [56]: -0.424
- interaction score [57]: -1.68
- interaction score [58]: 0.519
- interaction score [59]: -0.215
- interaction score [63]: -1.29
- interaction score [60]: -1.21
- interaction score [61]: -0.173
- interaction score [62]: -0.397
Binder: DKNQELEKENEELKRKIWELEKEIQELKR [4H3298-bH]

More lines, now with the values behind:

Binder: DEIAALEAENAALEAKNAALKAKIAALEG [4H189-AA]
- interaction score [28]: -1.25
- interaction score [29]: -1.26
- interaction score [30]: -1.71
- interaction score [31]: 1.05
- interaction score [32]: 1.11
- interaction score [33]: -1.02
- interaction score [34]: -1.76
- interaction score [35]: 2.05
- interaction score [36]: 1.07
- interaction score [37]: -1.74
- interaction score [38]: -1.84
- interaction score [39]: -1.19
- interaction score [40]: -1.07
- interaction score [41]: -0.919
- interaction score [42]: -1.64
- interaction score [43]: -0.914
- interaction score [44]: -1.23
- interaction score [45]: -1.47
- interaction score [46]: -1.97
- interaction score [47]: -1.4
- interaction score [48]: -1.92
- interaction score [49]: 1.85
- interaction score [50]: 0.26
- interaction score [51]: -0.83
- interaction score [52]: -1.31
- interaction score [53]: -1.52

Binder: DKNQELEKENEELKREIWELKKKIQELER [4H3277-bH]
- interaction score [6]: 1.3
- interaction score [54]: -0.709
- interaction score [55]: 0.203
- interaction score [7]: 0.219
- interaction score [56]: -0.711
- interaction score [57]: -0.0624
- interaction score [58]: -1.48
- interaction score [59]: -0.167
- interaction score [8]: 0.141
- interaction score [9]: 0.256
- interaction score [10]: -0.305
- interaction score [60]: 0.0179
- interaction score [61]: -1.06
- interaction score [11]: -2.8
- interaction score [62]: -0.423
